Test results reported in patent publication US20090298755A1 (NEW ENGLAND MEDICAL CENTER HOSPITALS, published 2009).
Ends that are not written are not given here.

Legend:
NK1 receptor (rat brain) = molecular target: T1, NK1 receptor (rat brain) (rat, UniProt P14600 1-407); assay: radioligand competition, [125I]BH-SP on crude rat brain plasma membranes, room temperature, 75 min, filtration
T1 construct: whole, on cells; Native receptor in crude rat brain plasma membrane homogenate, not on intact cells; also called SP receptor
T1 sequence (P14600 whole entry): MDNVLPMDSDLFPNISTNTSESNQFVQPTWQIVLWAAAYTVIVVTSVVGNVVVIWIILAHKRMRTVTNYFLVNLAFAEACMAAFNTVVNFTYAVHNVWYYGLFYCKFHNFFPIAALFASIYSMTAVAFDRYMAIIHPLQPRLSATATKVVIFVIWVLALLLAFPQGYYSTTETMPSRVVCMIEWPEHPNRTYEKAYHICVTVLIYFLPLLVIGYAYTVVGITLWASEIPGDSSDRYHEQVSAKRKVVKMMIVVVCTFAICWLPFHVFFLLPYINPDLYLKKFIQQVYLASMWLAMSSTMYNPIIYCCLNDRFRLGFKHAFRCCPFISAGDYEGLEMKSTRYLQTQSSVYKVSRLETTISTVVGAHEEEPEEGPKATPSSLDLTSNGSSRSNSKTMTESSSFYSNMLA
Protocol: (§1) For binding assays to opioid receptors, frozen rat brains (−80° C.) were homogenized in 40 volumes of standard Tris buffer (50 mM Tris HCl (pH 7.4), 0.2 mg/ml BSA, 2.5 mM EDTA, 40 μg/m bacitracin, 30 μg/ml bestatin and 5 mM MgCl₂) and centrifuged at 15,000×g for 20 minutes. 100 mM NaCl was added to the buffer, in order to remove endogenous ligands, and the centrifugation was repeated. After a wash with standard buffer, the membrane preparation was finally resuspended in 10 volumes of incubation buffer (standard buffer with 4 μg/ml leupeptin and 2 μg/ml chymostatin). […] The brain homogenates were used on the day of preparation.
After filtration, the radioactivity was determined on a gamma-counter.

µ receptor (rat brain) = molecular target: T2, µ receptor (rat brain) (rat, UniProt P33535 1-398); assay: radioligand competition, [3H]DAMGO on crude rat brain plasma membranes, 4 C, 90 min, filtration
T2 construct: whole, on cells; Native receptor in crude rat brain plasma membrane homogenate, not on intact cells; also called µ opioid receptor; opioid receptor
T2 sequence (P33535 whole entry): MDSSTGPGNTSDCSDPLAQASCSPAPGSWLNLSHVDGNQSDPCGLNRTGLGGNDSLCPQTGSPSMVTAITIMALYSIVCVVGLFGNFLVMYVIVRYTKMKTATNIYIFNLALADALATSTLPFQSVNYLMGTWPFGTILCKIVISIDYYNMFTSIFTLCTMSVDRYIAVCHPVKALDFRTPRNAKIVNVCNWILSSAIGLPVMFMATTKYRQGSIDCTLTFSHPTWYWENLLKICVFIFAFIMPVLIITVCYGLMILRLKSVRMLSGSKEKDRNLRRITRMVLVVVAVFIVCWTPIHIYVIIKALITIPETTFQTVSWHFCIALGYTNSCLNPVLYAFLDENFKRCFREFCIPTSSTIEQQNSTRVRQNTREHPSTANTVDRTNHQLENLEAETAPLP
Protocol: as §1
After incubation the samples were filtered on a Brandell-Harvester using an appropriate GF/B filter soaked in 50 mM Tris HCl (pH 7A) and 0.5% PEI. Scintillation fluid was added to the filters in order to solubilize the membranes, and a beta-counter was used to quantify radioactivity.

B1: ESP7 (peptide)
peptide: YPFFGLM-NH2
notes: Chimera of endomorphin-2 at the N-terminus and SP(7-11) at the C-terminus; also called chimeric peptide ESP7; Tyr-Pro-Phe-Phe-Gly-Leu-Met-NH2
**Q.** With B1 as the binder, how does the Kd (NK1 receptor (rat brain)) read?
**A.** ~200 nM

**Q.** And the Kd (µ receptor (rat brain))?
**A.** ~300 nM
